The values that follow come from paper PMC3667858 (PLoS ONE, 2013).

The target in experiment [1] is T1, FMDV Asia 1 virus-like particles (VLPs) (Foot-and-mouth disease virus serotype …, UniProt A2I7M2).
T1 construct: also called Asia 1 VLPs antigen; recombinant VLPs; copies: + +
Kind of experiment: SPR. To be noted: both partners purified.

Experiment [2] addresses T2, FMDV Asia 1 virions in infected BHK-21 cells (Foot-and-mouth disease virus serotype …, UniProt A2I7M2, strain).
T2 construct: also called FMD virions; FMD Asia 1 virions; copies: + + +
Kind of experiment: immunostaining of cells or tissue. Conditions: one partner purified.

B1: sdAb-C6 (VHH)
VHH: HVQLVESGGGSVQAGGSLRLSCTYSVYTYSSDSMAWFRQAPGKEREGVAGIYIGSGSTLYADSVKGRFTISQDKAKNTVYLQMNSLKPEDTALYYCAAGGNWYDGVLNVERAFAYWGQGTQVTVSS
notes: also called clone 6; sdAb-6
The Kd is the free concentration of one partner at which half of the binding sites on the other are occupied at equilibrium, for simple one-to-one binding. Read a high Kd as lower affinity. Usually koff stands for the rate constant with which the complex falls apart. Low values mean a long-lived complex, high ones a short-lived complex. As usually defined, the kon is a measure of how fast the partners come together. Higher therefore signals fast association. In experiment [1], B1 yielded a Kd of 0.44 nM, a koff of 0.000703 s⁻¹ and a kon of 1.6e+06 M⁻¹ s⁻¹.

B2: Alexa Fluor-488-conjugated-sdAb-C6 (VHH)
VHH: B1 VHH
notes: also called AF488-C6; AF488-C6 probe
As to B2, the binding result in experiment [2] is recorded as “binds”.

B3: QDs-C6 probe (VHH)
VHH: B1 VHH
notes: also called QD-sdAb probe; QDs-sdAb
For B3, in experiment [2], the binding result was “binds”.
